Experimental data taken from paper PMC5651844, “YEATS2 links histone acetylation to tumorigenesis of non-small cell lung cancer” (Nature Communications, 2017).

Target: YEATS domain of human YEATS2 (aa 201-332), tag removed (human) (UniProt Q9ULM3)
Experiment: ITC; YEATS2_(201-332) titrated with histone peptides, 15 C, 20 mM Tris 7.5, 0.5 M sodium citrate, 5% glycerol, 2 mM beta-mercaptoethanol; one set of binding sites model

Sequence of YEATS domain of human YEATS2 (aa 201-332), tag removed (human) (Q9ULM3 201-332): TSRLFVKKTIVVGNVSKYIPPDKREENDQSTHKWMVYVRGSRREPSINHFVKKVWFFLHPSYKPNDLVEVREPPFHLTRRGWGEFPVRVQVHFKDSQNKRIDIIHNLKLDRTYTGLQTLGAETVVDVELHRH
Sequence of histone H3 P30A mutant peptide (peptide; modification not given) (chain, as listed by the source P30A): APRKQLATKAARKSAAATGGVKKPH

Substance: histone H3 P30A mutant peptide (peptide; modification not given)
- fold drop against the wild-type H3K27ac peptide: 2 fold
